In test [1] the target is T1, apoGAD65 (glutamate decarboxylase GAD65, residues 84-585, purified without added PLP) (human, UniProt Q05329). Nature of the test: HDX-MS.
Test [2] has as its target T1, apoGAD65 (glutamate decarboxylase …). Description: SPR. (In general: Surface plasmon resonance follows binding to a sensor surface in real time, without labels.)

T1 sequence (Q05329 84-585): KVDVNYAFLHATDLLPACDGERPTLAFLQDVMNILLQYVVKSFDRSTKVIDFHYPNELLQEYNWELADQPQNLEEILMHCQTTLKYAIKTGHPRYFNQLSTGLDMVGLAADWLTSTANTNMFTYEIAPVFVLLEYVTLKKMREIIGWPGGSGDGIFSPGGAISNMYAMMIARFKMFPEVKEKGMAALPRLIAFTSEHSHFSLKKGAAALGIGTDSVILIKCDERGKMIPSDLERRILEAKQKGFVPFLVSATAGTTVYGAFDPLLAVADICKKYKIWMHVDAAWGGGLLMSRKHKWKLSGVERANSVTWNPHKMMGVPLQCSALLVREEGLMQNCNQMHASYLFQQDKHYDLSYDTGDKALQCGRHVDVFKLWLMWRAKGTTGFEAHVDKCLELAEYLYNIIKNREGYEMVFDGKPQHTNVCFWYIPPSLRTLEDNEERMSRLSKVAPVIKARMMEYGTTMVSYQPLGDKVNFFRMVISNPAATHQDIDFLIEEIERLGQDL

B1: b96.11 Fab (recombinant Fab based on the human APS-2-associated autoantibody b96.11) (Fab, V domains shown)
VH: EVQLVESGGGLVQPGRSLRLSCSASGFTFGDYAMSWFRLAPGKGLEWVGLIKSRAIDGTPQYAASVKGRFTISRDDSNSIAYLQMNSLTTEDTAIYYCARDFYDFWNEFSHRTFDFWGQGTLVTVSS
VL: QSALTQPASASGSPGQSVTITCTGSSSDVGGYKYVSWYQHHPGKAPKLMIYEVSKRPSGVPDRFSGSKSGNMASLTVSGLQAEDEADYYCSSYAGSYNFYVFGNGTKVTVL
As to B1, in test [1], the binding result is listed as “binds”.

B2: b96.11 IgG (purified monoclonal b96.11 IgG antibody) (antibody, V domains shown)
VH: EVQLVESGGGLVQPGRSLRLSCSASGFTFGDYAMSWFRLAPGKGLEWVGLIKSRAIDGTPQYAASVKGRFTISRDDSNSIAYLQMNSLTTEDTAIYYCARDFYDFWNEFSHRTFDFWGQGTLVTVSS
VL: QSALTQPASASGSPGQSVTITCTGSSSDVGGYKYVSWYQHHPGKAPKLMIYEVSKRPSGVPDRFSGSKSGNMASLTVSGLQAEDEADYYCSSYAGSYNFYVFGNGTKVTVL
For B2, the binding result in test [2] is listed as “binds”.

Source of the values: doi:10.1101/2024.03.18.585568 (bioRxiv, 2024).
